The source of these data is the DeepSol protein solubility set.

This data set is described as follows: soluble on expression in E. coli; label from the status in PepcDB or PDB records.
On to “MGMLDVSLHKITQKSQSLLHRTADRHLRLAVTGLSGAGKTAFITGLVNQLLNSGAVSTVSHSRQNGLPLWQVSREQRLLGVKRAMQPDLEIASFDYQGAMLALTSNPPTWPESTRTISELRLAIKYRPEKGLLAKFADAATLYLDIVDYPGEWLLDLPMLRQSYIEWCTTQQQRIAVLKSSPLYAGFETSLNALNLAAMADESELKRLADQYQQLLHDLVHVQGYYQAQPGRMLLPGEWQGAPLLAFFPLLSVTNAQWSNLKQSDKHSAFHVLEKRYQEYVAKVVKPFYKQHFAGFDRQVVLVDCFSALNRGKSQFEDMGAALNAIMESFQYGQSSYLRRLFAPRIDRLLFAASKVDHVTRDQQSHVLSLLTDMLKHSQHFAGFEGCKVETMAISAIKATRHGMVTTQEGDVEVVQGTGLNGQALTLFPGEVPTRLPEPDFWREQGFNFIGFAPPDNTNVDPSSVHFDHIRLDHLLQYLVGDKLE”, for which the “soluble on expression in E. coli” value is listed as “not soluble”.

As for “MGSDKIHHHHHHMSPMTIPSEMKALLLVGDGYTKTPSGSALEAMEPYLEQGRIAVPAPGPSQVLIKVNLASINPSDVAFIKGQYGQPRVKGRPAGFEGVGTIVAGGDEPYAKSLVGKRVAFATGLSNWGSWAEYAVAEAAACIPLLDTVRDEDGAAMIVNPLTAIAMFDIVKQEGEKAFVMTAGASQLCKLIIGLAKEEGFRPIVTVRRDEQIALLKDIGAAHVLNEKAPDFEATLREVMKAEQPRIFLDAVTGPLASAIFNAMPKRARWIIYGRLDPDATVIREPGQLIFQHKHIEGFWLSEWMRQFKERRGPAILEAQKRFSDGRWSTDVTAVVPLAEAIAWVPAELTKPNGKVFIRP”, the “soluble on expression in E. coli” value is “not soluble”.

As to “MKTHQYELIDEKVFEHEFDNGLKLFIIPKPGFQKTYVTYTTQFGSLDNHFKPIGSQQFVKVPDGVAHFLEHKLFEKEDEDLFTAFAEENAQANAFTSFDRTSYLFSATSNIESNIKRLLNMVETPYFTEETVNKEKGIIAEEIKMYQEQPGYKLMFNTLRAMYSKHPIRVDIAGSVESIYEITKDDLYLCYETFYHPSNMVLFVVGDVSPQSIIKLVEKH”, the “soluble on expression in E. coli” value is “not soluble”.

For “MSLGKLLFVDIGGTLLDYSNEVPRSAVDAIRKARAKGHRVYLSSGRSSAEVTSQLWDIGVDGLIGANGGYVESAQESVFHRRLSGEETRHIVEWLYNRGLEFYLESNNGLYASRGFREASKPVLSRLSEKTDVTVDSMYPDMFWGASLDRDDVNKISYIFNSQEDLDAAREAFPNLEHTTWGGQTGALFGTIGVSVNKKIGVDRLLKYLNADRANTIAFGDSDEDLSLFEASAYGVAMGEATESLKAAADLVTDAVGQDGLRNAFLKLELIDAEGHHHHHH”, the “soluble on expression in E. coli” value is given as “soluble”.

As to “VVAPITTGYTVKISNYGWDQSDKFVKIYITLTGVHQVPTENVQVHFTERSFDLLVKNLNGKSYSMIVNNLLKPISVEGSSKKVKTDTVLILCRKKVENTRWDYLTQVEKECKEK”, the “soluble on expression in E. coli” value was “soluble”.

For “MAEKAENLPSSSAEASEEPSPQTGPNVNQKPSILVLGMAGSGKTTFVQRLTAFLHARKTPPYVINLDPAVSKVPYPVNVDIRDTVKYKEVMKEFGMGPNGAIMTCLNLMCTRFDKVIELINKRSSDFSVCLLDTPGQIEAFTWSASGSIITDSLASSHPTVVMYIVDSARATNPTTFMSNMLYACSILYRTKLPFIVVFNKADIVKPTFALKWMQDFERFDEALEDARSSYMNDLSRSLSLVLDEFYCGLKTVCVSSATGEGFEDVMTAIDESVEAYKKEYVPMYEKVLAEKKLLDEEERKKRDEETLKGKAVHDLNKVANPDEFLESELNSKIDRIHLGGVDEENEEDAELERS”, the “soluble on expression in E. coli” value is listed as “not soluble”.

Turning to “MADTGEVQFMKPFISEKSSKSLEIPLGFNEYFPAPFPITVDLLDYSGRSWTVRMKKRGEKVFLTVGWENFVKDNNLEDGKYLQFIYDRDRTFYVIIYGHNMCSEYRDFPQVAVEVDDYENGEEEEDGDDQDKHQ”, the “soluble on expression in E. coli” value is recorded as “soluble”.

In the case of “MRNITNFLKTFLLWELLKGLKVTGKHFFTRKVTVQYPDEKTPISNRFRGLHALRRYENGEERCIACKLCEVVCPALAITINSTEREDGTRRTSSYEMDLFKCIFCGYCEESCPVDSIVETNILEYHFEERGENIMTKAKLLAIGDKYEAQIAADRLQDKDFR”, the “soluble on expression in E. coli” value is reported as “not soluble”.

On to “KEELESIINSSPVIVFLWKYEEGWPIEFVSENVTRLGYEVEDFTSRKILYGNIVYPGDLEKVERELARNIEFGCEDYSSEYRILTKSGEVRWVDERTFIQRDEKGEIRLQGIILDIT”, for which the “soluble on expression in E. coli” value is reported as “not soluble”.

In the case of “MGKLYVVPTPVGNLEDMTFRAIRVLKEVDLILAEDTRTSGILLKHFEIKNAMQSHHKFNEHKTVESVVNRIKAGETVALISDAGTPGISDPGFLVVRECVRNGIEVQCLPGATAFVPALVASGLPNEKFCFEGFLPQKKGRQTRLKALAEEHRTMVFYESPHRLLKTLTQFAEYFGTERQATVSREISKLHEETVRGSLAELIEHFTATEPRGEIVIVLAGIDD”, the “soluble on expression in E. coli” value is reported as “soluble”.

Turning to “DFEVGDKIRILATLEDGWLEGSLKGRTGIFPYRFVKLCPDTRVEETMALPQEGSLARIPETSLDCLENTLGVEEQRHETSDHEAEEPDCIISEAPTSPLGHLTSEYDTDRNSYQDEDTAGGPPRSPGVEWEMPLATDSPTSDPTEVVNGISSQPQVPFHPNLQKSQYYSTVGGSHPHSEQYPDLLPLEARTRDYASLPPKRMYSQLKTLQKPVLPLYRGSSVSASRVVKPRQSSPQLHNLASYTKKHHTSSVYSISERLEMKPGPQAQGLVMEAATHSQGDGSTDLDSKLTQQLIEFEKSLAGPGTEPDKILRHFSIMDFNSEKDIVRGSSKLITEQELPERRKALRPPPPRPCTPVSTSPHLLVDQNLKPAPPLVVRPSRPAPLPPSAQQRTNAVSPKLLSRHRPTCETLEKEGPGHMGRSLDQTSPCPLVLVRIEEMERDLDMYSRAQEELNLMLEEKQDESSRAETLEDLKFCESNIESLNMELQQLREMTLLSSQSSSLVAPSGSVSAENPEQRMLEKRAKVIEELLQTERDYIRDLEMCIERIMVPMQQAQVPNIDFEGLFGNMQMVIKVSKQLLAALEISDAVGPVFLGHRDELEGTYKIYCQNHDEAIALLEIYEKDEKIQKHLQDSLADLKSLYNEWGCTNYINLGSFLIKPVQRVMRYPLLLMELLNSTPESHPDKVPLTNAVLAVKEINVNINEYKRRKDLVLKYRKGDEDSLMEKISKLNIHSIIKKSNRVSSHLKHLTGFAPQIKDEVFEETEKNFRMQERLIKSFIRDLSLYLQHIRESACVKVVAAVSMWDVCMERGHRDLEQFERVHRYISDQLFTNFNGQKS”, the “soluble on expression in E. coli” value was “soluble”.

For the sequence “GLESFSLTSHEKKFGVNIEFSDVNFSYPKQTNHRTLKSINFFIPSGTTCALVGHTGSGKSTIAKLLYRFYDAEGDIKIGGKNVNKYNRNSIRSIIGIVPQDTILFNETIKYNILYGKLDATDEEVIKATKSAQLYDFIEALPKKWDTIVGNKGMKLSGGERQRIAIARCLLKDPKIVIFDEATSSLDSKTEYLFQKAVEDLRKNRTLIIIAHRLSTISSAESIILLNKGKIVEKGTHKDLLKLNGEYAEMWNMQSGGNDI”, the “soluble on expression in E. coli” value is reported as “soluble”.

“MADEQEIMCKLESIKEIRNKTLQMEKIKARLKAEFEALESEERHLKEYKQEMDLLLQEKMAHVEELRLIHADINVMENTIKQSENDLNKLLESTRRLHDEYKPLKEHVDALRMTLGLQRLPDLCEEEEKLSLDYFEKQKAEWQTEPQEPPIPESLAAAAAAAQQLQVARKQDTRQTATFRQQPPPMKACLSCHQQIHRNAPICPLCKAKSRSRNPKKPKRKQDE”: the “soluble on expression in E. coli” value is listed as “not soluble”.

As to “MISVNKVFYAHSERFQMQNMNVHIKAGEVVSLIGPNGSGKSTLLRLMARLLKQSEGDIVLDGKSIHTMKSADVAKQLAMLPQMHDHQLDLTVKELIEFGRGPHKSWRGRLNKEDEEIVDWALSVTNLEGYEYRLLQSLSGGERQRAWIAMTLAQRTNVLLLDEPTTFLDIVHQLEVMELVKRLNEEFGMTIIMVLHDINQAAQYSDRLLVLKRGKLQYDGVPEEVLCHEMFQHIFGIEVDIFQGSEKPFFTPKRISKKGGAKCEQKNVLPLS”, the “soluble on expression in E. coli” value is “not soluble”.

As for “MKTITQQYLTGERALFKAHDLEIDNTTFADGESPLKESRNVTLKQPIFKWKYPLWYSQHVTVDQGLFETMSRSGIWYTKDITITNSTLQAPKLFRRASQVKLAHVHFSDAEETLWNCQDITLNDVQAAGDYFGMNSQNIRIDGFNLVGNYAFDGAKNVEIHHATLMTKDALWNCENVTVYDSQIIGEYLGWNSKNIRFVNCTIESDQGLCYMDNVKLENCTLLNTDLAFEYCRNIDADVVSTIDSVKNPLSGRIHAQAIGEIIMDDPEVDPHQTLISVDHESRAPHAV”, the “soluble on expression in E. coli” value was “not soluble”.
